B1: Far upstream element-binding protein 2, residues 142 to 214; numbered along this chain, Q92945 (parent)
chain: RTSMTEEYRVPDGMVGLIIGRGGEQINKIQQDSGCKVQISPDSGGLPERSVSLTGAPESVQKAKMMLDDIVSR
B2: Tripartite motif-containing protein 44, residues 174 to 218; numbered along this chain, Q96DX7 (parent)
chain: VAKRKCPDHGLDLSTYCQEDRQLICVLCPVIGAHQGHQLSTLDEA

Variants of: B1
Assay: abundance fitness (aPCA) (normalised: wild type 0, dead -1); higher = more abundant; growth selection in yeast, the domain comes from the species named
Conditions: Homo sapiens

Abundance fitness of substitutions, site by site:
M4: W -0.15; D -0.106; C 0.045; I -0.096; G -0.431; L -0.002; H -0.107; N -0.178; T -0.063; F 0.02; V -0.069; S -0.072; E -0.085; P -0.365; K 0.029; R -0.079; Q 0.057; A -0.716
S3: E 0.151; K 0.219; I 0.137; V 0.144; N 0.224; Q 0.124; H 0.009; L 0.074; G 0.003; Y 0.125; W 0.05; T 0.213; F 0.251; D 0.17; A 0.028; C 0.152; P 0.043
T5: W -0.456; S -0.11; G -0.485; Y -0.248; F -0.331; P -0.62; V -0.154; D -0.319; Q -0.117; C -0.125; R -0.168; E -0.304; H -0.235; N -0.16; L -0.384; A -0.248
R1: S -0.072; W -0.143; I 0.195; H -0.256; Y -0.195; Q 0.036; G -0.071; E 0.075; D 0.017; F -0.297; M 0.19; K 0.166; A -0.205; L -0.071; P -0.27; N 0.101
T2: M 0.104; S 0.071; P -0.227; G -0.04; A -0.13; L -0.079; E -0.025; Y -0.016; K -0.007; W -0.567; Q -0.421; D 0.003; N 0.109; V 0.004; C -0.198; I -0.04; H -0.138; R -0.169

Variants of: B2
Assay: as above
Conditions: Homo sapiens

Abundance fitness, by site and new letter:
D43: I -0.132; P 0; E 0.023; T -0.042; S -0.026; R -0.072; G -0.013
G36: I -0.623; L -0.266; M -0.245; R -0.158; Q -0.088; H -0.033
D20: E -0.033; Y -0.57; P -0.896; R -0.072
K3: W -0.196; N -0.042; H -0.08; P -0.093
V30: G -0.144; H -0.046; K 0.096; I -0.032; N -0.057; D 0.001; F -0.133; R 0.019; A -0.011
E19: C -0.063; D 0.045; Y -0.082; L -0.081; S -0.048; T -0.01; I -0.063
L42: E 0.035; T 0.068; D 0.028; Y 0.017; H 0.056
C25: I -1.11; M -0.968; W -1.02; E -0.717
G32: N -0.465; L -0.775; C -0.575; A -0.425; H -0.49; W -0.778; V -0.674; M -0.663; D -0.417; S -0.393
R21: W -0.24; A 0; V -0.205; N 0.047
R4: V -0.086; S -0.054; G -0.057; M 0.023; F -0.041; K 0.007; I -0.046; D 0.016; A -0.062; L -0.061
Y16: I 0.127; W -0.039; N -0.167; L -0.054; M -0.011; T 0.029; E -0.033
L27: I -0.119; C -0.283; Q 0.127; F -0.137; M 0.039; V -0.151; E 0.063; H -0.069
P7: T 0.065; L -0.124; F -0.321; D -0.481; I -0.092; M -0.036; R -0.168
K5: L -0.15; T -0.115; A -0.235; S -0.125
T41: P 0.003; I -0.11; C -0.029; Y -0.098; S 0.032
L39: K -0.06; Y -0.129; M 0.028; V -0.019; T 0.019; A -0.02; I -0.024; D -0.025
Q38: I -0.045; E 0.007; K 0.03; Y -0.145; G -0.009; D 0.036
S14: G 0.019; H -0.014; M -0.049; T 0.01
L23: V -0.048; N -0.09; I -0.161; D 0.081; T -0.001; S 0.014
A33: L -0.079; K -0.006; S 0.019; H -0.031
C6: V -1.07; H -1.1; E -0.946; D -0.701; Q -0.889; A -1.05
C17: S -0.562; P -0.751; N -0.701; G -0.557; I -0.759
H34: T -0.665; K -0.634; C -0.107; W -0.895; V -0.802; Y -0.665; E -0.647
H37: R -0.677; D -0.589; I -1.01; E -0.565; F -0.931; L -0.839; C -0.055
E44: R -0.032; N -0.014; Q -0.031; D -0.053; K -0.056
L13: Y -0.147; V -0.082; Q -0.009
V1: L -0.196; H -0.275; K -0.005; S -0.027; Y -0.226; W -0.231
I31: E 0.053; L -0.02; C -0.103
P29: T -0.021; K -0.004; G -0.083; Y -0.098; S 0.012; N -0.064
D8: T 0.051; W -0.105; P -0.827; A 0.016; F -0.034
V26: M -0.011; G 0.002; P 0.029; L -0.025; Y -0.041; T 0.054; A 0.042
Q18: W -0.189; T -0.06
L11: M -0.05; R 0; V -0.183; Y -0.031; G -0.169
S40: K -0.041; G 0.015
H9: F -1.24; E -0.863; D -0.981; K -0.995; A -1; N -0.838
C28: M -1.07; I -1.09; K -0.744; P -0.882; A -0.897
T15: Y 0.001; G -0.101; H -0.033; I -0.137; P -0.544; A -0.085
Q22: S 0.007; P -0.726; I -0.094; G -0.109; T 0.06; C 0.042
Q35: E -0.021; W -0.186; L -0.105; T -0.037; F -0.162; V -0.035; G -0.152; M -0.031
A2: T 0.12; F 0.009; Y -0.027
I24: A -0.121; Y -0.262; L -0.068
G10: W -0.311; S -0.064; K -0.106; N 0.118; H 0.002; T -0.347; E -0.074
D12: R -0.214; W -0.141; S -0.113; T -0.071; L -0.166
A45: P 0.004; C -0.058
